Laboratory results taken from patent US20200164038A1, “MODIFIED NUCLEOSIDE, NUCLEOTIDE, AND NUCLEIC ACID COMPOSITIONS” (ModernaTX, Inc., priority 2011, published 2020).

How the values were obtained:
[1] = Stability of modified RNA on storage (gel electrophoresis); format: physicochemical
Procedure: Stability experiments were conducted to obtain a better understanding of storage conditions to retain the integrity of modified RNA. […] 40° C. 37° C. 25° C. 4° C. or −20° C. After the mRNA had been stored for 0 hours, 2 hours, 6 hours, 24 hours, 48 hours, 5 days and 14 days, the mRNA was analyzed by gel electrophoresis using a Bio-Rad EXPERION™ system. The modified, unmodified and lipoplexed G-CSF mRNA was also stored in RNASTABLE® (Biomatrica, Inc. San Diego, Calif.) at 40° C. or water at −80° C. or 40° C. for 35 days before being analyzed by gel electrophoresis.
mRNA samples stored at 4° C. 25° C. and 37° C. were stored in 1×TE buffer or the formulation buffer (150 mM sodium chloride, 2 mM calcium chloride, 2 mM phosphate, 0.5 mM EDTA at a pH of 6.5). The mRNA stored at 4° C. was stable to at least 60 days in both the TE and formulation buffer. At 25° C. the mRNA in formulation buffer was stable out to 14 days and the TE buffer was stable out to at least 6 days. Storage of mRNA in the formulation buffer at 37° C. was stable to 6 days compared to the TE buffer which was stable only until 4 days.

mice = experiment: Saline formulation: human protein in mouse serum 13 hours after injection; format: in vivo; details: G-CSF group, 100 ug
Procedure: The mice were bled at 13 hours after the injection to determine the concentration of the human polypeptide in serum in pg/mL. (G-CSF groups measured human G-CSF in mouse serum and EPO groups measured human EPO in mouse serum).

B1: G-CSF Gen 1: G-CSF mRNA SEQ ID NO 6, Cap1, fully modified with 5-methylcytosine and pseudouridine (nucleic acid, listed as Homo sapiens)
chain: GGGAAAUAAGAGAGAAAAGAAGAGUAAGAAGAAAUAUAAGAGCCACCAUGGCCGGUCCCGCGACCCAAAGCCCCAUGAAACUUAUGGCCCUGCAGUUGCUGCUUUGGCACUCGGCCCUCUGGACAGUCCAAGAAGCGACUCCUCUCGGACCUGCCUCAUCGUUGCCGCAGUCAUUCCUUUUGAAGUGUCUGGAGCAGGUGCGAAAGAUUCAGGGCGAUGGAGCCGCACUCCAAGAGAAGCUCUGCGCGACAUACAAACUUUGCCAUCCCGAGGAGCUCGUACUGCUCGGGCACAGCUUGGGGAUUCCCUGGGCUCCUCUCUCGUCCUGUCCGUCGCAGGCUUUGCAGUUGGCAGGGUGCCUUUCCCAGCUCCACUCCGGUUUGUUCUUGUAUCAGGGACUGCUGCAAGCCCUUGAGGGAAUCUCGCCAGAAUUGGGCCCGACGCUGGACACGUUGCAGCUCGACGUGGCGGAUUUCGCAACAACCAUCUGGCAGCAGAUGGAGGAACUGGGGAUGGCACCCGCGCUGCAGCCCACGCAGGGGGCAAUGCCGGCCUUUGCGUCCGCGUUUCAGCGCAGGGCGGGUGGAGUCCUCGUAGCGAGCCACCUUCAAUCAUUUUUGGAAGUCUCGUACCGGGUGCUGAGACAUCUUGCGCAGCCGUGAAGCGCUGCCUUCUGCGGGGCUUGCCUUCUGGCCAUGCCCUUCUUCUCUCCCUUGCACCUGUACCUCUUGGUCUUUGAAUAAAGCCUGAGUAGGAAG
modifications: Cap1; 5-methylcytosine, pseudouridine
- stable out to ([1]; stored at 25° C., with or without lipoplex): 120 h
- stable out to ([1]; stored at 37° C.): 24 h
- stable out to ([1]; stored at 50° C.): 6 h
- Average Protein Product, human G-CSF (mice): 45 pg/mL, serum
